Changes are numbered by the printed parent chain.
T1: Human MuSK (R&D Systems, cat. 10189-MK, histidine tag) (human, UniProt O15146 24-495)
T1 construct: Bought protein; also called human monomeric MuSK-6xhis; not shown: histidine tag (6xhis)
T1 sequence: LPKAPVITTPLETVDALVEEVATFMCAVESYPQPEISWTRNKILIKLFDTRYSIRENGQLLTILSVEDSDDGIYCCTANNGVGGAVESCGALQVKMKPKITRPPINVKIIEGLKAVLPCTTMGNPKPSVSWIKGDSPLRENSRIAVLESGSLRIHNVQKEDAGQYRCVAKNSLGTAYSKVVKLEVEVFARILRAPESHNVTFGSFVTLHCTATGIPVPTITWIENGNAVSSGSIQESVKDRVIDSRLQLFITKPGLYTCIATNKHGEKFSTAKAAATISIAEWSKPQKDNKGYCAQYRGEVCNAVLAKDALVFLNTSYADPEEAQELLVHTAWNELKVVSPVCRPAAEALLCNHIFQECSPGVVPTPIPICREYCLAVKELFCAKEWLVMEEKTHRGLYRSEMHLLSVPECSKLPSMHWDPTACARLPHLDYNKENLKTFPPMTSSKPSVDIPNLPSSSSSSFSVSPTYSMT

T2: hMuSK delta 1-2 (Ig3 Fz) (human, UniProt O15146)
T2 construct: truncated extracellular domain, captured by anti-FLAG
T2 sequence (truncated extracellular domain, looked up): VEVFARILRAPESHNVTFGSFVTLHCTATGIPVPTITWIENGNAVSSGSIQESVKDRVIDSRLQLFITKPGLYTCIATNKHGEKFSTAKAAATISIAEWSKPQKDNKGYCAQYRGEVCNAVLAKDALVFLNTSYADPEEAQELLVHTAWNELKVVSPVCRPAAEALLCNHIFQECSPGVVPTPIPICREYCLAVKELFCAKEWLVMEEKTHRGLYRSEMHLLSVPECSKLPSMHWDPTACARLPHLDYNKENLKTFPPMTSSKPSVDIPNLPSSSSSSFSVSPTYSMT

B1: 3D10a (antibody, human IgG1, kappa, L234A L235A, V domains shown)
VH: EVQLVESGGGLVKPGGSLRLSCAASGFTFSASTMAWVRQAPGKGLEWVSSVSGDSHHIYYADSLKGRFTISRDNAKNSLYLQMNSLRAEDTAVYYCARERLLRLGVGFDSWGQGTLVTVSS
VL: DIQMTQSPSSLSASVGDRVTITCRASQRISGFVNWYQQKPGKAPKLLIYAASTLQSGVPSRFSGSGSGTDFTLTISSLQPEDFATYYCQQSYSPLYTFGQGTKLEIKR
B2: 3D9b (antibody, human IgG1, kappa, L234A L235A, V domains shown)
VH: EVQLVESGGGLVKPGGSLRLSCAASGFTFSTYTMHWVRQAPGKGLEWVSSISSRSAYKYYADSVKGRFTISRDNAKNSLYLQMNSLRAEDTAVYYCARDFFQLGPPRFDSWGQGTLVTVSS
VL: B1 VL with G31S, V33L, A50G, T53N, L95S
B3: 3F6c (antibody, human IgG1, kappa, L234A L235A, V domains shown)
VH: EVQLVESGGGLVKPGGSLRLSCAASGFTFSSYTMDWVRQAPGKGLEWVSSIGSNGDYIYYADSVRGRFTISRDNAKNSLYLQMNSLRAEDTAVYYCARGQLAVAGTHFDYWGQGTLVTVSS
VL: B1 VL with R28K, I29V, S30N, G31K, F32Y, Y96S
B4: 4D3 (antibody, human IgG1, kappa, L234A L235A, V domains shown)
VH: B1 VH with A31S, S32Y, A35T, V51I, G53S, D54G, S55G, H57Y, A61T, S110F
VL: B1 VL with R28S, F32Y, V33L, P94A

Each binder was assayed against T1, Human MuSK (R&D Systems, cat. 10189-MK, …) (assay: SPR (Biacore), MuSK-coated chip, antibody alone (run of first antibody 3D10a)).
Procedure: (§1) A chip was coated with ˜5000 RU of human MuSK (Lot nr DHUCO 11908A, batch nr 1089_MK). In a first experiment the saturating concentration of the pre-leads was determined. This is the concentration where the amplitude of a specific pre-lead doesn't increase anymore when additional pre-lead is injected on the immobilized MuSK.

amplitude of prelead without presaturating MuSK (RU)	Binder
3130	B1
2110	B2
2510	B3
2620	B4

What follows are binders tested against T1, Human MuSK (R&D Systems, cat. 10189-MK, …) (assay: SPR (Biacore), MuSK-coated chip presaturated with 500 nM 3D9b (competitor)).
Procedure: as §1

amplitude of prelead after presaturating MuSK (RU)	extra amplitude (%)	normalized extra amplitude (%)	Binder
-1	-0.5	-1.5	B1
40	1	0	B2
-5	-2.1	-3.1	B3
-3	-1.6	-2.6	B4

What follows are binders tested against T2, hMuSK delta 1-2 (Ig3 Fz) (assay: ELISA, hMuSK delta 1-2 (Ig3 Fz) captured on anti-FLAG coat, antibody titrated, anti-human Fc HRP detection, OD450).
Procedure: For binding to MuSK domains—An ELISA plate was coated with 0.5 μg/ml of anti-FLAG (M2 clone, Sigma Cat. F3165) and incubated overnight at 4° C. Next, the plate was washed with PBS and blocked with 1×PBS 1% casein for two hours at RT. After washing the plate, human monomeric MuSK FLAG streptavidin (batch 27-6-2019) and truncated MuSK variants (batch 3-9-2019) at 1 μg/ml in PBS where incubated for one hour at RT. After washing the plate, antibodies were diluted in blocking buffer and added to the plate. After a one hour incubation at RT, the plate was washed. Next, detecting antibody was added and incubated for one hour at RT (anti-human Fc HRP (1/5000) (clone 5A9, cat. No. Ab7499, ABCAM)) in blocking buffer. Lastly, the plate was washed with PBS and TMB was added and the reaction was stopped with 0.5 M H2SO4. OD 450 nm was determined by the Tecan Sunrise ELISA plate reader.
For the MuSK domain binding ELISA, binding of anti-MuSK antibodies to FLAG captured human monomeric MuSK and truncated variants was tested (FIG. 6). 3D9b, 3F6c, 3D10a, 4D3 and 3B5 bound only to full length MuSK, no binding was observed against the truncated MuSK variants. Therefore, we conclude that our antibodies bind to the Ig1 domain.

Binder	binding result
B1	no binding (tested: log(conc) 4.2 (about 16000 ng/ml))
B2	no binding (tested: log(conc) 4.2 (about 16000 ng/ml))
B3	no binding (tested: log(conc) 4.2 (about 16000 ng/ml))
B4	no binding (tested: log(conc) 4.2 (about 16000 ng/ml))

What follows are binders tested against T1, Human MuSK (R&D Systems, cat. 10189-MK, …) (assay: SPR (Biacore), antibody captured on anti-hFc chip; 2.5 nM; dissociation pH 5.5).
Source text: In order to study pH dependent binding of our antibodies to MuSK, the Biacore was used with the same setup as described in the paragraph entitled “Binding affinity for mouse, human and rhesus monkey recombinant MuSK in Biacore”. 6. […] For the other antibodies there is no real difference observed between pH 7.4 and 5.5.

koff [s⁻¹]	Binder
9e-05	B1
4e-05	B2
0.0002	B3
0.00014	B4

Each binder was assayed against T1, Human MuSK (R&D Systems, cat. 10189-MK, …) (assay: SPR (Biacore), MuSK-coated chip, antibody alone (run of first antibody 3D9b)).
Procedure: as §1

amplitude of prelead without presaturating MuSK (RU)	Binder
189	B1
3970	B2
235	B3
188	B4
